Test system: Diamondback moth (Plutella xylostella)
Test: Diet-surface overlay (DSO) bioassay
Type: in vivo
Experimental: Diet-surface overlay bioassays are conducted with artificial diet mixes without antibiotics in 1.5 cm^2 cell bioassay trays(s). Artificial diets are commercially available from Southland Products Inc. Diets were prepared by dispersing 0.5 mL of molten diet to each 1.5 cm^2 cell. After solidification, 0.1 mL enzyme treatments were dispersed on top of diet in each cell and the tray was gently rocked in an orbital shaker to spread the liquid uniformly over the diet surface. Trays were placed under clean airflow until the surface of each cell was uniformly dried. One or two 16-cell sections were used per treatment (the number in larvae treated was 16 or 32).
One healthy first instar larva was placed into each treatment cell, each 16-cell section was covered with a re-sealable lid and incubated at 27° C. and light-dark period of 16:8 hrs. After 7 days, and according to the species, the number of individuals in the following developmental categories was recorded.
Diamondback moth (Plutella xylostella): Dead Larva (lack of movement), Larva Stage I (≤50% relative size), Larva Stage II (100% relative size, full size), Early Pupa (light green color), Late Pupa (light-dark brown color), and Adult.
Negative/untreated controls were treated with filtered water and positive controls were treated with lethal doses of Bacillus thuringiensis subsp. Kurstaki (Btk) spores at 1000 ppm.

[1] = Table 49, esterases, number of individuals, n = 32

B1: Bacillus subtilis Esterase (EstB without signal sequence) (protein, listed as Bacillus subtilis)
chain: ESVHNPVVLVHGISGASYNFFAIKNYLISQGWQSNKLYAIDFYDKTGNNLNNGPQLASYVDRVLKETGAKKVDIVAHSMGGANTLYYIKYLGGGNKIQNVVTLGGANGLVSSTALPGTDPNQKILYTSIYSLNDQIVINSLSRLQGARNIQLYGIGHIGLLSNSQVNGYIKEGLNGGGLNTN
modifications: Esterase (EstB H191 without signal sequence)
Adult [1]: 0 | Early Pupa [1]: 4 | Larva Stage I [1]: 3 | Larva Stage II [1]: 8 | Late Pupa [1]: 17 | Dead Larva (Table 49, esterases, number of individuals, n = 32, dose per treatment in U/mL Diet): 0 | individuals at larva stage (text to Table 49): 34% | individuals with delayed larva-pupa development (text to Table 49): 47%

— patent US20240324599A1, “PESTICIDAL ENZYMES FOR USE ON NEMATODES, INSECTS, AND MOLLUSKS” (priority 2023, published 2024)
